Results as given in paper PMC7198388, “Radiohybrid Ligands: A Novel Tracer Concept Exemplified by ^18F- or ^68Ga-Labeled rhPSMA Inhibitors” (Journal of Nuclear Medicine, 2020).
Where two headings read alike, the source gives them in different places.

Experiments:
LNCaP cells = assay: Internalization into LNCaP cells, normalized to (125I-I-BA)KuE; type: cell-based, human; settings: LNCaP cells 1.25 x 10^5/well, 1 h, 37°C, ligand 0.5 nM/well; % of specific internalization of (125I-I-BA)KuE; 68Ga-19F or 18F free-chelator form; mean ± SD, n = 3
Experimental: Internalization studies were carried out according to a previously published procedure (1). Briefly, LNCaP cells were harvested 24 ± 2 hours before the experiment and seeded in poly -L-lysine coated 24-well plates […]
After removal of the culture medium, the cells were washed once with 500 µL DMEM -F12 (5% BSA) and left to equilibrate for at least 15 min at 37 °C in 200 µL DMEM-F12 (5% BSA). Each well was treated with either 25 µL of either DMEM-F12 (5% BSA, control) or 25 µL of a 100 µM PMPA (2-(Phosphonomethyl)-pentandioic acid, Tocris Bioscience, Bristol, UK) solution in PBS, for blockade. Next, 25 µL of the radioactive-labelled PSMA inhibitor (5.0 nM in PBS) was added and the cells were incubat ed at 37 °C for 60 min. The experiment was terminated by placing the 24 -well plate on ice for 3 min and consecutive removal of the medium. Each well was carefully washed with 250 µL of ice-cold HBSS. Both fractions from the first steps, representing the amount of free radioligand, were combined. Removal of surface bound activity was accomplished by incubation of the cells with 250 µL of ice-cold PMPA (10 µM in PBS) solution for 5 min […]
and rinsed again with another 250 µL of ice-cold PBS. The internalized activity was determined by incubation of the cells in 250 µL 1 M aqueous NaOH for at least 10 min. The obtained fractions were combined with those of the subsequent wash step with 250 µL 1 M aqueous NaOH. Each experiment (control and blockade) was performed in triplicate. Free, surface bound and internalized activity was quantified in a γ-counter. All internalization studies were accompanied by external reference studies, using […]
Data were corrected for non-specific

human serum albumin = target: T1, human serum albumin (Homo sapiens, UniProt P02768); assay: HSA binding by HPLC on Chiralpak HSA column; type: in vitro ADME; settings: affinity HPLC, 50 mM NH4OAc pH 6.9/isopropanol gradient, r.t., 0.5 mg/mL, calibrated with nine reference substances, natGa-19F form
T1 construct: purchased Daicel H13H-2433
Experimental: with water (10 mL). The purified product was eluted with 50% aqueous ethanol (2 mL), phosphate buffered saline (PBS, 1 mL) and again water (1 mL). After removing ethanol in vacuo, purity of the radiolabelled compounds was determined by radio-HPLC and radio-TLC (ITLC-SG chromatography paper, mobile phase: 0.1 M trisodium citrate and Silica gel 60 RP-18 F254s, mobile phase: 3:2 mixture (v/v) of MeCN in H2O supplemented with 10% of 2 M NaOAc solution and 1% of TFA).
6. Human Serum Albumin (HSA) Binding
HSA binding of the PSMA-addressing ligands was determined according to a previously published procedure via HPLC (7). A Chiralpak HSA column (50 x 3 mm, 5 μm, H13H-2433, Daicel, Tokyo, Japan) […]
literature, in the range of 13 to 99% (7,8). All substances, including the examined PSMA ligands, were […]
final concentration of 0.5 mg/mL.
(Northampton, United States).
Affinity determinations (IC50)
The PSMA affinity (IC50) determinations and synthesis of the radioiodinated reference ligand (((S)-1- […]
described previously (1). Briefly, the respective ligand was diluted (serial dilution 10-4 to 10-10) in Hank’s balanced salt solution (HBSS, Biochrom). In the case of metal-complexed ligands, the crude reaction mixture containing the purified metal-complexed inhibitor and remaining metal nitrate, was diluted THE JOURNAL OF NUCLEAR MEDICINE • Vol. 61 • No. 5 • May 2020 Wurzer et al.

[1] = Biodistribution in LNCaP tumor-bearing CB-17 SCID mice; settings: male, mouse, in vivo, iv, 0.2 nmol, total radioactivity, 1 h p.i., i.v. tail vein, mean ± SD, n = 3 (n = 4 for rhPSMA-10)
Description: Mice were used for experiments when tumors had grown to a diameter of 5–10 mm (3–6 wk after inoculation).
Selected organs were removed, weighed, and measured in a γ-counter.

[2] = read-out: Biodistribution, Adrenals
[3] = read-out: Biodistribution, Blood
[4] = read-out: Biodistribution, Bone
[5] = read-out: Biodistribution, Heart
[6] = read-out: Biodistribution, Intestine
[7] = read-out: Biodistribution, Kidneys
[8] = read-out: Biodistribution, Liver
[9] = read-out: Biodistribution, Lung
[10] = read-out: Biodistribution, Muscle
[11] = read-out: Biodistribution, Pancreas
[12] = read-out: Biodistribution, Spleen
[13] = read-out: Biodistribution, Stomach
[14] = LNCaP tumor, read-out: Biodistribution, Tumor

T1 sequence (P02768 25-609): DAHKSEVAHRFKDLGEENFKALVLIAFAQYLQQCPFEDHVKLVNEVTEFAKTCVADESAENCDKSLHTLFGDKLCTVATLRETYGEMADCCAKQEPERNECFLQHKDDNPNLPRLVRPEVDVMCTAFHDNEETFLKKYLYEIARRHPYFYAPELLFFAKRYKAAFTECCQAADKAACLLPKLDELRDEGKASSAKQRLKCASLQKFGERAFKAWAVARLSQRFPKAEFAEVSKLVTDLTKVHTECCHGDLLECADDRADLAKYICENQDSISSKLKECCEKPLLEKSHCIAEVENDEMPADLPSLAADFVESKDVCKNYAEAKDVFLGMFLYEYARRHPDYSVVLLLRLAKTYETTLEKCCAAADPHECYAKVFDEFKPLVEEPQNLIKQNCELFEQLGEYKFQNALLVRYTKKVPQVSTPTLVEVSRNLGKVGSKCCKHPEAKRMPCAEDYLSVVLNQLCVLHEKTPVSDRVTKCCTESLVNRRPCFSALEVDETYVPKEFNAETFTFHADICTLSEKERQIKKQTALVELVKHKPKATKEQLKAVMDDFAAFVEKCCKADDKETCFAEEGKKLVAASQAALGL

Compound	Internalization (LNCaP cells)	HSA-binding (human serum albumin) [%]	tissue uptake at 1 h [1, 2] [%ID/g]	tissue uptake at 1 h [1, 3] [%ID/g]	tissue uptake at 1 h [1, 4] [%ID/g]	tissue uptake at 1 h [1, 5] [%ID/g]	tissue uptake at 1 h [1, 6] [%ID/g]	tissue uptake at 1 h [1, 7] [%ID/g]	tissue uptake at 1 h [1, 8] [%ID/g]	tissue uptake at 1 h [1, 9] [%ID/g]	tissue uptake at 1 h [1, 10] [%ID/g]	tissue uptake at 1 h [1, 11] [%ID/g]	tissue uptake at 1 h [1, 12] [%ID/g]	tissue uptake at 1 h [1, 13] [%ID/g]	tissue uptake at 1 h [1, 14] [%ID/g]
CC(C)(C)[Si](F)(c1ccc(C(=O)NC[C@@H](C(=O)N[C@H](CCCCNC(=O)CCCCCCC(=O)NCCCC[C@H](NC(=O)N[C@@H](CCC(=O)O)C(=O)O)C(=O)O)C(=O)O)n2cc(CNC(=O)CCP(=O)(O)CN3CCN(CP(=O)(O)CCC(=O)O)CCN(CP(=O)(O)CCC(=O)O)CC3)nn2)cc1)C(C)(C)C [68/natGa-19/18F-rhPSMA-5, metal not drawn]	43 ± 3 % of reference	–	–	–	–	–	–	–	–	–	–	–	–	–	–
CC(C)(C)[Si](F)(c1ccc(C(=O)NC[C@@H](NC(=O)CCC(C(=O)O)N2CCN(CC(=O)O)CCN(CC(=O)O)CCN(CC(=O)O)CC2)C(=O)N[C@H](CCCCNC(=O)CCCCCCC(=O)NCCCC[C@H](NC(=O)N[C@@H](CCC(=O)O)C(=O)O)C(=O)O)C(=O)O)cc1)C(C)(C)C (some centres unmarked) [68/natGa-19/18F-rhPSMA-6, metal not drawn]	33 ± 2 % of reference	–	–	–	–	–	–	–	–	–	–	–	–	–	–
CC(C)(C)[Si](F)(c1ccc(C(=O)N[C@H](CNC(=O)CCC(C(=O)O)N2CCN(CC(=O)O)CCN(CC(=O)O)CCN(CC(=O)O)CC2)C(=O)N[C@H](CCCCNC(=O)CCC(=O)NCCC[C@@H](NC(=O)CC[C@H](NC(=O)N[C@@H](CCC(=O)O)C(=O)O)C(=O)O)C(=O)O)C(=O)O)cc1)C(C)(C)C (some centres unmarked) [68/natGa-19/18F-rhPSMA-8, metal not drawn]	98 ± 12 % of reference	97	2.2 ± 0.8	1.7 ± 0.1	0.32 ± 0.07	0.93 ± 0.08	0.35 ± 0.01	82.3 ± 5.9	0.79 ± 0.17	1.3 ± 0.2	0.24 ± 0.02	0.48 ± 0.11	6.3 ± 1.5	0.42 ± 0.11	6.5 ± 0.8
CC(C)(C)[Si](F)(c1ccc(C(=O)NC[C@@H](C(=O)N[C@H](CCCCNC(=O)CCC(=O)NCCC[C@@H](NC(=O)CC[C@H](NC(=O)N[C@@H](CCC(=O)O)C(=O)O)C(=O)O)C(=O)O)C(=O)O)n2cc(CNC(=O)CCP(=O)(O)CN3CCN(CP(=O)(O)CCC(=O)O)CCN(CP(=O)(O)CCC(=O)O)CC3)nn2)cc1)C(C)(C)C [68/natGa-19/18F-rhPSMA-9, metal not drawn]	180 ± 12 % of reference	95	2.7 ± 0.2	0.46 ± 0.11	0.18 ± 0.05	0.48 ± 0.17	0.44 ± 0.34	54.9 ± 3	0.42 ± 0.07	0.94 ± 0.2	0.19 ± 0.06	0.39 ± 0.09	25.4 ± 5.2	0.48 ± 0.4	7.2 ± 0.6
